One may read the kcat as the maximal rate divided by the concentration of active sites. The KM is the substrate concentration at which the rate is half of its maximum.

The text below walks through data of the supplement of paper PMC7125110.

Sequences and labels used below:
B1: glmS ribozyme (parent)
chain: AUAAAAGCGCCAGAACUACAGAAAUGUAGUUGACGAGGAGGAGGUUUAUCGAAUUUUCGGCGGAUGCCUCCAAA

± gives the standard error. For some assays here: This sample holds only a part of the variants without activity. Some results are limits rather than exact numbers.

Details in all cases: with glucosamine-6-phosphate
Variants of B1 are the subject of data set [1]. As to the kind of experiment: kcat; higher = faster cleavage; RNA array. An outline of the steps:
(§1)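 In situ transcription by E. coli RNA polymerase produced barcoded ribozyme variants on sequenced MiSeq chips, and a hybridised Cy3 probe tracked them at 37 °C. Glucosamine-6-phosphate was flowed in at 40 μM to 10 mM in HEPES/KCl/Mg(OAc)2 buffer. kcat and KM were taken from weighted Michaelis–Menten fits of kobs values from exponential decay fits.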

Variants of B1 are the subject of data set [2]. As to the kind of experiment: self-cleavage kobs at 40 uM GlcN6P; higher = faster cleavage; RNA array. An outline of the steps: as §1
In data set [3] the parent is B1. As to the kind of experiment: self-cleavage kobs at 160 uM GlcN6P; higher = faster cleavage; RNA array. An outline of the steps:
as §1

Variants of B1 are the subject of data set [4]. The data set is described as follows: self-cleavage kobs at 640 uM GlcN6P; higher = faster cleavage; RNA array. An outline of the steps: as §1
Variants of B1 are the subject of data set [5]. As to the kind of experiment: self-cleavage kobs at 2500 uM GlcN6P; higher = faster cleavage; RNA array. An outline of the steps: as §1
Variants of B1 are the subject of data set [6]. As to the kind of experiment: self-cleavage kobs at 10000 uM GlcN6P; higher = faster cleavage; RNA array. An outline of the steps: as §1
In data set [7] the parent is B1. As to the kind of experiment: KM; higher = weaker cofactor use; RNA array. An outline of the steps:
as §1

As to U30A A39U, the kcat with glucosamine-6-phosphate [1] came to 0.00467 ± 0.0022 s⁻¹. Also, in the data set with glucosamine-6-phosphate [2], the “self-cleavage kobs at 40 uM GlcN6P” value turned out to be 0.000191 ± 5.4e-05 s⁻¹. The “self-cleavage kobs at 160 uM GlcN6P” value in the data set with glucosamine-6-phosphate [3] came out at 0.000401 ± 8.1e-05 s⁻¹. The “self-cleavage kobs at 640 uM GlcN6P” value in the data set with glucosamine-6-phosphate [4] amounted to 0.00188 ± 0.00036 s⁻¹. Besides, in the data set with glucosamine-6-phosphate [5], the “self-cleavage kobs at 2500 uM GlcN6P” value is 0.0022 ± 0.00046 s⁻¹. The “self-cleavage kobs at 10000 uM GlcN6P” value in the data set with glucosamine-6-phosphate [6] is 0.00745 ± 0.0016 s⁻¹.

With U47A U69G, in the data set with glucosamine-6-phosphate [1], the kcat stood at 7.34e-05 ± 1.1e-05 s⁻¹. Further, the “self-cleavage kobs at 640 uM GlcN6P” value in the data set with glucosamine-6-phosphate [4] is 7.68e-05 ± 1.1e-05 s⁻¹. The “self-cleavage kobs at 2500 uM GlcN6P” value with glucosamine-6-phosphate [5] was determined as 8.85e-05 ± 1.1e-05 s⁻¹. Moreover, the “self-cleavage kobs at 10000 uM GlcN6P” value in the data set with glucosamine-6-phosphate [6] was 5.37e-05 ± 1e-05 s⁻¹.

For the variant A52G U57A, the kcat with glucosamine-6-phosphate [1] was 0.000484 ± 0.00016 s⁻¹. For the same variant, the “self-cleavage kobs at 160 uM GlcN6P” value in the data set with glucosamine-6-phosphate [3] was 4.1e-05 ± 1.6e-05 s⁻¹. Moreover, the “self-cleavage kobs at 640 uM GlcN6P” value in the data set with glucosamine-6-phosphate [4] is 6.62e-05 ± 9.6e-06 s⁻¹. Further, the “self-cleavage kobs at 2500 uM GlcN6P” value in the data set with glucosamine-6-phosphate [5] was 0.00023 ± 2.4e-05 s⁻¹. Also, the “self-cleavage kobs at 10000 uM GlcN6P” value in the data set with glucosamine-6-phosphate [6] was found to be 0.000289 ± 8e-05 s⁻¹.

Turning to C11U A15C G51U C70A, in the data set with glucosamine-6-phosphate [1], the kcat was determined as 6.95e-05 ± 2.4e-05 s⁻¹. For the same variant, the “self-cleavage kobs at 40 uM GlcN6P” value with glucosamine-6-phosphate [2] was found to be 6.91e-05 ± 1.9e-05 s⁻¹. Besides, the “self-cleavage kobs at 2500 uM GlcN6P” value with glucosamine-6-phosphate [5] is 0.000111 ± 3.3e-05 s⁻¹. The “self-cleavage kobs at 10000 uM GlcN6P” value in the data set with glucosamine-6-phosphate [6] stood at 5.08e-05 ± 2e-05 s⁻¹.

With A15G A64C, the kcat with glucosamine-6-phosphate [1] was 0.000162 ± 9.6e-06 s⁻¹. Besides, the KM with glucosamine-6-phosphate [7] was found to be 2040 ± 230 µM. For the same variant, the “self-cleavage kobs at 640 uM GlcN6P” value in the data set with glucosamine-6-phosphate [4] was found to be 3.75e-05 ± 6.6e-06 s⁻¹. The “self-cleavage kobs at 2500 uM GlcN6P” value in the data set with glucosamine-6-phosphate [5] amounted to 9.56e-05 ± 1.6e-05 s⁻¹. Further, the “self-cleavage kobs at 10000 uM GlcN6P” value in the data set with glucosamine-6-phosphate [6] is 0.00013 ± 2.2e-05 s⁻¹.

For G7A, in the data set with glucosamine-6-phosphate [1], the kcat stood at 4.39e-05 ± 1.2e-06 s⁻¹. The KM in the data set with glucosamine-6-phosphate [7] stood at 4040 ± 350 µM. Moreover, the “self-cleavage kobs at 2500 uM GlcN6P” value with glucosamine-6-phosphate [5] was 1.71e-05 ± 2.6e-06 s⁻¹. For the same variant, the “self-cleavage kobs at 10000 uM GlcN6P” value in the data set with glucosamine-6-phosphate [6] came out at 3.13e-05 ± 1.1e-06 s⁻¹.

As to A6U G13C C70G, the kcat with glucosamine-6-phosphate [1] amounted to 2.43e-05 ± 8.6e-06 s⁻¹.

Turning to G13A C71U, in the data set with glucosamine-6-phosphate [1], the catalytic constant (kcat) worked out at 0.00103 ± 0.00012 s⁻¹. In addition, in the data set with glucosamine-6-phosphate [7], the KM was 4730 ± 920 µM. The “self-cleavage kobs at 160 uM GlcN6P” value with glucosamine-6-phosphate [3] was 2.52e-05 ± 8.2e-06 s⁻¹. For the same variant, the “self-cleavage kobs at 640 uM GlcN6P” value with glucosamine-6-phosphate [4] amounted to 0.000138 ± 2e-05 s⁻¹. In addition, the “self-cleavage kobs at 2500 uM GlcN6P” value in the data set with glucosamine-6-phosphate [5] worked out at 0.000358 ± 5.1e-05 s⁻¹. Moreover, the “self-cleavage kobs at 10000 uM GlcN6P” value with glucosamine-6-phosphate [6] turned out to be 0.000698 ± 5.9e-05 s⁻¹.

As to A12C G62U C70G, the kcat with glucosamine-6-phosphate [1] came out at 2.02e-05 ± 4.5e-06 s⁻¹.

Regarding U57C C70G, the kcat with glucosamine-6-phosphate [1] amounted to 1.91e-05 ± 3.1e-06 s⁻¹.

A12G U65A: the kcat with glucosamine-6-phosphate [1] was determined as 0.0002 ± 5.7e-06 s⁻¹. Further, the KM with glucosamine-6-phosphate [7] is 3880 ± 230 µM. Besides, the “self-cleavage kobs at 640 uM GlcN6P” value with glucosamine-6-phosphate [4] came to 2.72e-05 ± 6.7e-06 s⁻¹. Moreover, the “self-cleavage kobs at 2500 uM GlcN6P” value with glucosamine-6-phosphate [5] turned out to be 7.94e-05 ± 8.3e-06 s⁻¹. The “self-cleavage kobs at 10000 uM GlcN6P” value with glucosamine-6-phosphate [6] amounted to 0.000143 ± 1.2e-05 s⁻¹.

For A53C G66U, the kcat with glucosamine-6-phosphate [1] was found to be 0.000484 ± 6.4e-05 s⁻¹. Also, the Michaelis-Menten constant (KM) with glucosamine-6-phosphate [7] worked out at 1770 ± 450 µM. In the data set with glucosamine-6-phosphate [3], the “self-cleavage kobs at 160 uM GlcN6P” value stood at 3.36e-05 ± 1.5e-05 s⁻¹. The “self-cleavage kobs at 640 uM GlcN6P” value in the data set with glucosamine-6-phosphate [4] is 0.000128 ± 3.6e-05 s⁻¹. The “self-cleavage kobs at 2500 uM GlcN6P” value with glucosamine-6-phosphate [5] came out at 0.000344 ± 8.3e-05 s⁻¹. In the data set with glucosamine-6-phosphate [6], the “self-cleavage kobs at 10000 uM GlcN6P” value was found to be 0.00039 ± 7.6e-05 s⁻¹.

Regarding A33C G38U, the turnover number (kcat) in the data set with glucosamine-6-phosphate [1] is under 1e-05 s⁻¹. In addition, the “self-cleavage kobs at 40 uM GlcN6P” value with glucosamine-6-phosphate [2] was under 1e-05 s⁻¹. The “self-cleavage kobs at 160 uM GlcN6P” value with glucosamine-6-phosphate [3] is under 1e-05 s⁻¹. Moreover, the “self-cleavage kobs at 640 uM GlcN6P” value with glucosamine-6-phosphate [4] was under 1e-05 s⁻¹. The “self-cleavage kobs at 10000 uM GlcN6P” value in the data set with glucosamine-6-phosphate [6] is under 1e-05 s⁻¹.

Consider G32U A36U, for which the kcat with glucosamine-6-phosphate [1] was under 1e-05 s⁻¹. For the same variant, the “self-cleavage kobs at 40 uM GlcN6P” value with glucosamine-6-phosphate [2] is under 1e-05 s⁻¹. Moreover, the “self-cleavage kobs at 160 uM GlcN6P” value with glucosamine-6-phosphate [3] is under 1e-05 s⁻¹. For the same variant, the “self-cleavage kobs at 10000 uM GlcN6P” value in the data set with glucosamine-6-phosphate [6] was under 1e-05 s⁻¹.

With U46C U47G, the kcat in the data set with glucosamine-6-phosphate [1] amounted to 0.0024 ± 0.00028 s⁻¹. Moreover, the KM in the data set with glucosamine-6-phosphate [7] was 2600 ± 440 µM. For the same variant, the “self-cleavage kobs at 40 uM GlcN6P” value with glucosamine-6-phosphate [2] amounted to 3.18e-05 ± 8e-06 s⁻¹. In addition, the “self-cleavage kobs at 160 uM GlcN6P” value in the data set with glucosamine-6-phosphate [3] turned out to be 0.00015 ± 2.6e-05 s⁻¹. In the data set with glucosamine-6-phosphate [4], the “self-cleavage kobs at 640 uM GlcN6P” value came out at 0.000457 ± 8e-05 s⁻¹. For the same variant, in the data set with glucosamine-6-phosphate [5], the “self-cleavage kobs at 2500 uM GlcN6P” value was determined as 0.0014 ± 0.00026 s⁻¹. Further, in the data set with glucosamine-6-phosphate [6], the “self-cleavage kobs at 10000 uM GlcN6P” value worked out at 0.00183 ± 0.00026 s⁻¹.

As to C11A U56C, the kcat in the data set with glucosamine-6-phosphate [1] was 2.55e-05 ± 1e-05 s⁻¹. For the same variant, in the data set with glucosamine-6-phosphate [2], the “self-cleavage kobs at 40 uM GlcN6P” value was under 1e-05 s⁻¹. The “self-cleavage kobs at 160 uM GlcN6P” value with glucosamine-6-phosphate [3] was under 1e-05 s⁻¹. Also, the “self-cleavage kobs at 2500 uM GlcN6P” value with glucosamine-6-phosphate [5] is 4.6e-05 ± 2.2e-05 s⁻¹.

For G40C U47C, the kcat with glucosamine-6-phosphate [1] is 0.000914 ± 0.0001 s⁻¹. Further, the KM in the data set with glucosamine-6-phosphate [7] was determined as 2020 ± 360 µM. The “self-cleavage kobs at 160 uM GlcN6P” value in the data set with glucosamine-6-phosphate [3] is 7.4e-05 ± 2e-05 s⁻¹. Also, the “self-cleavage kobs at 640 uM GlcN6P” value with glucosamine-6-phosphate [4] amounted to 0.000201 ± 4.4e-05 s⁻¹. Further, in the data set with glucosamine-6-phosphate [5], the “self-cleavage kobs at 2500 uM GlcN6P” value is 0.000591 ± 0.00016 s⁻¹. For the same variant, the “self-cleavage kobs at 10000 uM GlcN6P” value with glucosamine-6-phosphate [6] came out at 0.000741 ± 0.00015 s⁻¹.
